Experimental data as given in publication PMC5566378 (2017).

B1: human IL-17F homodimer (ligand)
chain: RKIPKVGHTFFQKPESCPPVPGGSMKLDIGIINENQRVSMSRNIESRSTSPWNYTVTWDPNRYPSEVVQAQCRNLGCINAQGKEDISMNSVPIQQETLVVRRKHQGCSVSFQLEKVLVTVGCTCVTPVIHHVQ
B2: human IL-17RC extracellular domain (receptor)
chain: LERLVGPQDATHCSPGLSCRLWDSDILCLPGDIVPAPGPVLAPTHLQTELVLRCQKETDCDLCLRVAVHLAVHGHWEEPEDEEKFGGAADSGVEEPRNASLQAQVVLSFQAYPTARCVLLEVQVPAALVQFGQSVGSVVYDCFEAALGSEVRIWSYTQPRYEKELNHTQQLPDCRGLEVWNSIPSCWALPWLNVSADGDNVHLVLNVSEEQHFGLSLYWNQVQGPPKPRWHKNLTGPQIITLNHTDLVPCLCIQVWPLEPDSVRTNICPFREDPRAHQNLWQAARLQLLTLQSWLLDAPCSLPAEAALCWRAPGGDPCQPLVPPLSWENVTVDKVLEFPLLKGHPNLCVQVNSSEKLQLQECLWADSLGPLKDDVLLLETRGPQDNRSLCALEPSGCTSLPSKASTRAARLGEYLLQDLQSGQCLQLWDDDLGALWACPMDKYIHKR

Columns and labels:
[1] = target: B2; assay: SPR
[2] = target: human IL-17A/F heterodimer, Arg77 to alanine mutant (F-chain) (human, UniProt Q16552 24-155; Q96PD4 31-163, R77A); assay: SPR

Binder	Kd [1] [nM]	Kd [2] [nM]
B1	3.5	
B2		5.4
